From patent CN115536746A (NANJING SANHOME PHARMACEUTICAL CO LTD, dated 2022)

Legend:
[1] = biological target: T1, 人源CRTAM蛋白全长 on CHO-K1-hCRTAM cells (human, UniProt O95727 18-393); test: flow cytometry on CHO-K1-hCRTAM cells
T1 construct: also called 细胞表面hCRTAM
T1 sequence: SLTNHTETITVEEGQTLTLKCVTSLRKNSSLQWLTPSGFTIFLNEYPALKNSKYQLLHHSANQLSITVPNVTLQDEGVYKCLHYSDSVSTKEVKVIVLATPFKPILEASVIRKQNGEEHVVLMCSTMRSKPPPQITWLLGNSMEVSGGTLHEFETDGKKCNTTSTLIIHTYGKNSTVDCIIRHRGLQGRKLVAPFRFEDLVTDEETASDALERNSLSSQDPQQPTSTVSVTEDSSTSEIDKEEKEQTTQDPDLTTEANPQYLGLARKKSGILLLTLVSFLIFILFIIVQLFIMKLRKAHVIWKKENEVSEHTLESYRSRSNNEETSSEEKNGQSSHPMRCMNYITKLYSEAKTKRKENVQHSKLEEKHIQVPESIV

[2] = biological target: T2, 猴源CRTAM蛋白全长 on CHO-K1-cCRTAM cells (猴源 (食蟹猴, cynomolgus monkey), UniProt O95727 18-393 (human entry)); test: flow cytometry on CHO-K1-cCRTAM cells
T2 construct: also called 细胞表面食蟹猴CRTAM
T2 chain: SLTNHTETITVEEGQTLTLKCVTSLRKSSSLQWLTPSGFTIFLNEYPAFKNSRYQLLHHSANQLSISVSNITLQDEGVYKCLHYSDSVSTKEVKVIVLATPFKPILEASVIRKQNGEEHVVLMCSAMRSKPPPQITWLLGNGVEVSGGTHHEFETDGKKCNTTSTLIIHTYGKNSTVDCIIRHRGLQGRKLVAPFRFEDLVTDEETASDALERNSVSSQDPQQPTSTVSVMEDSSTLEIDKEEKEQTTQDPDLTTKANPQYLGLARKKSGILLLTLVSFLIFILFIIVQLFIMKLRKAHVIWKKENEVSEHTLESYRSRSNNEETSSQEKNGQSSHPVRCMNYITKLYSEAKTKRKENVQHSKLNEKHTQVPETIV

B1: HuC110-34 (antibody, V domains shown)
VH: QVQLVQSGAEVKKPGASVKVSCKASGYTFTNNDINWVKQAPGQRLEWIGWIYPRDGSTQYNEKFRGRATITVDTSASTAYMELSSLRSEDTAVYFCARGLVDYWGQGTLVTVSS
VL: DVVMTQSPDSLAVSLGERATINCRSSQSLVHSNKNTYLHWYLQKPGQPPKLLIYKVSNRFSGVPDRFSGSGSGTDFTLTISSLQAEDVAVYYCSQSTRVPWTFGGGTKLEIK
notes: also called HuC110-34-biotin; 抗CRTAM人源化抗体HuC110-34
In the case of B1, the EC50 [1] is reported as 0.0417 µg/mL and the EC50 [2] is reported as 0.0507 µg/mL.

B2: HuC94-31 (antibody, V domains shown)
VH: EVQLLESGGGLVQPGGSLRLSCAASGFTFSTSAMSWVRQAPGKGLEWVATISSGGDYTYYSDNVKGRFTISRDNSKSTLYLQMNSLRAEDTAVYYCTLGYDEADYWGQGSLLTVSS
VL: DIQMTQSPSSLSASVGDRVTITCRASQDISNYLNWYQQKPGKAPKLLIYYTSRLHSGVPSRFSGSGSGTDYTFTISSLQPEDIATYYCQQGDTFPWTFGGGTKLEIK
notes: also called HuC94-31-biotin; 抗CRTAM人源化抗体HuC94-31
B2 gave an EC50 [2] of 0.035 µg/mL.

B3: 人源化抗体5A11 (WO2019/086878) (antibody, human IgG1, lambda, V domains shown)
VH: EVQLVESGGGLVQPGGSLKLSCAASGFTFSDAAMYWVRQASGKGLEWVARIRTKTNNYAAHYVESVKGRFTVSRDDSKNTVYLQMNSLKTEDTAMYYCTSVPQGTQDYWGQGTLVTVSS
VL: SYELTQPSSVSVSPGQTARITCSGDVLSKRYAQWSQQKPGQAIVSVIYKDSERPSGIPERFSGSSSGTTATLTISGAQVEDEADYYCLSTYADDNLPVFGGGTKLTVLG
notes: also called 阳性对照抗体; 对照抗体
Binder B3 has an EC50 [1] of 0.0607 µg/mL.

B4: HuC124-42 (antibody, V domains shown)
VH: QVQLVQSGAEVKKPGSSVKVSCKASGYSFSNYWIEWVRQAPGQGLEWIGEILPGVPTIYYNAKFKDRVTFTADKSTSTAYMELSSLRSEDTAVYYCSRDPWFAYWGQGTLVTVSA
VL: EIVLTQSPATLSVSPGERATFSCRASQSIGTSLHWFQQKPGQAPRLLIKYASQSISGIPARFSGSGSGTEFTLTISSVQSEDFAVYYCQQSNNWPFTFGGGTKLEIK
notes: also called HuC124-42-biotin; 抗CRTAM人源化抗体HuC124-42
Work on B4 yielded an EC50 [2] of 0.0904 µg/mL.
